# Measurements: patent US20130309230A1 (published 2013)
# What was measured:
# AA, + MMP-9 = test: SPR; + MMP-9 (activated AA)
# AA, - MMP-9 = test: SPR; - MMP-9 (uncleaved, masked AA)
binder,measurement,setting,value
VEGF (ligand) APMAEGGGQNHHEVVKFMDVYQRSYCHPIETLVDIFQEYPDEIEYIFKPSCVPLMRCGGCCNDEGLECVPTEESNITMQIMRIKPHQGQHIGEMSFLQHNKCECRPKKDRARQENPCGPCSERRKHLFVQDPQTCKCSCKNTDSRCKARQLELNERTCRCDKPRR,Kd,"AA, + MMP-9",0.35 nM
same,Kd,"AA, - MMP-9",> 200 nM
